Test results: paper PMC6274866, “The 2β Splice Variation Alters the Structure and Function of the Stromal Interaction Molecule Coiled-Coil Domains” (International Journal of Molecular Sciences, 2018)

Columns and labels:
[1] = target: the molecule itself; assay: SEC-MALS; 1 mg/mL protein injected on Superdex 200 Increase 10/300 GL at 10 °C; 20 mM TRIS, 300 mM NaCl, 1 mM DTT, pH 8.0; without CaCl2; stoichiometric ratio = MALS molecular weight / theoretical monomer mass
[2] = target: the molecule itself; assay: SEC-MALS; 1 mg/mL protein injected on Superdex 200 Increase 10/300 GL at 10 °C; 20 mM TRIS, 300 mM NaCl, 1 mM DTT, pH 8.0; with 25 mM CaCl2; stoichiometric ratio = MALS molecular weight / theoretical monomer mass

B1: STIM1-2β-OASF (STIM1-OASF mutated to contain the VAASYLIQ (2β) insertion after G379) (domain or fragment, human, UniProt Q13586-1 234-491, looked up)
chain: NRYSKEHMKKMMKDLEGLHRAEQSLHDLQERLHKAQEEHRTVEVEKVHLEKKLRDEINLAKQEAQRLKELREGTENERSRQKYAEEELEQVREALRKAEKELESHSSWYAPEALQKWLQLTHEVEVQYYNIKKQNAEKQLLVAKEGVAASYLIQAEKIKKKRNTLFGTFHVAHSSSLDDVDHKILTAKQALSEVTAALRERLHRWQQIEILCGFQIVNNPGIHSLVAALNIDPSWMGSTRPNPAHFIMTDDVDDMDEEIVSPLSMQ
notes: Made by PCR-mediated site-directed mutagenesis of pET-28a-STIM1-OASF; A few vector residues probably remain after thrombin cleavage (surmise); source: E. coli BL21 (DE3), purified under denaturing conditions (guanidine-HCl, nickel-NTA), renatured, thrombin-cleaved, SEC
stoichiometry N [1]: 2.02
stoichiometry N [2]: 1.96
